This note sets out measurements from article PMC5089723, “Structural Insights into the Nucleotide-Binding Domains of the P1B-type ATPases HMA6 and HMA8 from Arabidopsis thaliana” (PLoS ONE, 2016).

The data set deals with the molecule itself. Put plainly: not stated; oligomeric state of the purified N/P domains and of their truncated fragments 'in solution'.

A word on the stoichiometry N: it is a count of units in the complex or per binding partner.

B1: HMA6 nucleotide binding and phosphorylation domains (HMA6^N/P, residues 576-853) (domain or fragment, Arabidopsis thaliana, UniProt Q9SZC9 576-853, looked up)
chain: RGLLLRGGDILEKFSLVDTVVFDKTGTLTKGHPVVTEVIIPENPRHNLNDTWSEVEVLMLAAAVESNTTHPVGKAIVKAARARNCQTMKAEDGTFTEEPGSGAVAIVNNKRVTVGTLEWVKRHGATGNSLLALEEHEINNQSVVYIGVDNTLAAVIRFEDKVREDAAQVVENLTRQGIDVYMLSGDKRNAANYVASVVGINHERVIAGVKPAEKKNFINELQKNKKIVAMVGDGINDAAALASSNVGVAMGGGAGAASEVSPVVLMGNRLTQLLDAME
notes: also called N/P domain of HMA6; source: expressed and purified
On to B1, for which the “stoichiometry N” value was 2.

B2: HMA8 nucleotide binding and phosphorylation domains (HMA8^N/P, residues 526-806) (domain or fragment, Arabidopsis thaliana, UniProt B9DFX7 526-806, looked up)
chain: RGYLIRGGDVLERLASIDCVALDKTGTLTEGRPVVSGVASLGYEEQEVLKMAAAVEKTATHPIAKAIVNEAESLNLKTPETRGQLTEPGFGTLAEIDGRFVAVGSLEWVSDRFLKKNDSSDMVKLESLLDHKLSNTSSTSRYSKTVVYVGREGEGIIGAIAISDCLRQDAEFTVARLQEKGIKTVLLSGDREGAVATVAKNVGIKSESTNYSLSPEKKFEFISNLQSSGHRVAMVGDGINDAPSLAQADVGIALKIEAQENAASNAASVILVRNKLSHVVD
notes: also called N/P domain of HMA8; source: expressed and purified
For B2, the “stoichiometry N” value was 2.
